Laboratory results published in patent US20060173159A1, “Water-soluble thioester and selenoester compounds and methods for making and using the same” (priority 2002, published 2006).
No end group written: not given here. *: point of attachment. thioester = C-terminal thioester, without the water-soluble polymer; Acm = CC(=O)NC*

Test: Dissolution of deprotected and cleaved crude peptide-thioester in 50% aqueous acetonitrile containing 0.08% TFA
Format: physicochemical
Details: 50% aqueous acetonitrile containing 0.08% trifluoroacetic acid (TFA)

| Substance | dissolution of deprotected and cleaved peptide-thioester |
| --- | --- |
| GRFN 1852-PLP3-Leu: SEQ ID NO:4 peptide, C-terminal L-thioester joined to water-soluble polyamide polymer PLP3-Leu (C(Acm)LSQLHSGLFLYQGLLQALEGISPELGPTLDTLQLDVADFATTIWQQMEEL; not fully specified (C-terminus); also: C-terminal thioester joined to PLP3-Leu polyamide polymer) | completely dissolved |
| GRFN 1852: SEQ ID NO:3 peptide L-thioester, non-polymer modified; comparator (C(Acm)LSQLHSGLFLYQGLLQALEGISPELGPTLDTLQLDVADFATTIWQQMEEL-thioester) | poorly soluble |
